From the nanobody polyreactivity screen of Harvey et al. (2022)

experiment: yeast display, Sf9 membrane polyspecificity reagent, FACS + sequencing; frameworks hold sequencing errors
How it was run: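 Synthetic nanobody libraries on Saccharomyces cerevisiae BJ5465 were galactose-induced for 36–48 hours, stained 1 hour at 4 °C with 10% biotinylated, detergent-solubilized Sf9 membrane reagent and enriched on streptavidin microbeads. FACS then separated cells into low and high (top ~1%) gates by anti-HA (expression) and streptavidin (reagent binding) fluorescence. Genes were colony-PCR amplified, MiSeq 2 × 250 sequenced and CDR-length filtered. A clone's polyreactivity label is that of its gate of origin.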

Sequence	polyreactivity (PSR sort gate)
QVQLVESGGGLVQAGGSLRLSCAASGFTFSGNALGWYRQARGKERELVAAISVGGGRTYYADSVKGRFTISRDNAKNTVYLQMNSLKPEDTAVYYCARYTRRSETWRYDYWGQGTQVTVSS	high polyreactivity
QVQLVESGGGLVQAGGSLRLSCAASGFTFSGYDMGWYRQAPGKERELVAGISSGGVSTTYADSVKGRFTISRDNAKNTVYLQMNSLKPEDTAVYYCSTSGPQYYSRNFDYWGQGTQVTVSS	low polyreactivity
QVQLVESGGGLVQAGGSLRLSCAASGFTFSHYAMGWYRQAPGKERELVAAISRRGSSTYYADSVKGRFTISRDNAKNTVYLQMNSLKPEDTAVYYCNVERLTGVWYYQRPSQDGYWGQGTQVTVSS	high polyreactivity
QVQLVESGGGLVQAGGSLRLSCAASGFTFSKYAMGWYLQAPGKERELVAAISRRGGSTYYADSVKGRFTISRDNAKNTVYLQMNSLKPEDTAVYYCAARYSVGTGYGYWGQGTQVTVSS	high polyreactivity
QVQLVESGGGLVQAGGSLRLSCAASGFTFSKYGMGWYRQAPGKERELVAAISSGGSTHYADSVKGRFTISRDNAKNTVYLQMNILKPADTAVYYCNASSKFAKPQRYYWGQGTQVTVSS	low polyreactivity
QVQLVESGGGLVQAGGSLRLSCAASGFTFSLYAMGWYRQAPGKERELVASIDSDGVSTYYADSVKGRFTISRDNAKNTVYLQMNSLKPEDTAVYYCAADLWWGYISGPVRGRGYYWGQGTQVTVSS	low polyreactivity
QVQLVESGGGLVQAGGSLRLSCAASGFTFSLYAMGWYRQAPGKERELVASISRSGGSTYYADSVKGRFTISRDNAKNTVYLQMNSLKPEDTAVYYCAARWRPYKYDSWGQGTQVTVSS	high polyreactivity
QVQLVESGGGLVQAGGSLRLSCAASGFTFSNYTMGWYRQAPGKERELVAAIRSSGGRTYYADSVKGRFTISRDNAKNTVYLQMDSLKPEDTAVYYCNAEYRTDGGYWVQGTQVTVSS	low polyreactivity
QVQLVESGGGLVQAGGSLRLSCAASGFTFSPNAMRWYRQAPGKERELVAAIDWSGDRTYYADSVKGRFTISRDNAKNTVYLQMNSLKPEDTAVYYCAADIRDPGVPMDYWGQGTQVTVSS	low polyreactivity
QVQLVESGGGLVQAGGSLRLSCAASGFTFSRYAMGWYRPAPGKERELVAAITSSGGSTYYADSVKGRFTISRDNAKNTVYLQMNSLKPEDTAVYYCAAGKYTASNGYGYWGQGTQVTVSS	high polyreactivity
QVQLVESGGGLVQAGGSLRLSCAASGFTFSSNAMGWYRQAPGKEREFVAAISFNSTSTYYADSVKGRFKISRDNAKNTVYLQMNSLKPEDTAVYYCAADVPRVQSEPEYDYWGQGTQVTVSS	low polyreactivity
QVQLVESGGGLVQAGGSLRLSCAASGFTFSSYAMGWYRQAPGKERELDAAITRNGGSTYYADSVKGRFTISRDNAKNTDYLQMNSLNPEYTAVYNCAAQYPRQRYGYYWPYYKYYYWGHGTQVTVSS	high polyreactivity
QVQLVESGGGLVQAGGSLRLSCAASGFTFSSYAMGWYRQAPGKERELVAAISGSGDRTRYADSVKGRFTISRDNAKNTVYLQMNSLKPEDTAVYYCAAKSPGSQTAMDYWGQGTQVTVSS	high polyreactivity
QVQLVESGGGLVQAGGSLRLSCAASGFTFSSYAMGWYRQAPGKERELVAAITISGGRTYYADSVKGRFTISRDNAKNTVYLQMNSLKPEDTAVYYCAALYVEGQNHYGYWGQGTQVTVSS	high polyreactivity
QVQLVESGGGLVQAGGSLRLSCAASGFTFSSYAMGWYRQAPGKERELVARISSGSSTNYADSVKGRFTISRDNAKNTVYLQMNSLKPEDTAVYYCAARYTARRQSYGYWGQGTQVTVSS	high polyreactivity
QVQLVESGGGLVQAGGSLRLSCAASGFTFSTYAMGWYRQAPGKEREFVAAISRGGTRTYYADSVKGRFTISRDNAKNTVYLQMTSLKPEDTAVYYCAARSKARNGYDYWGQGTQVTVSS	high polyreactivity
QVQLVESGGGLVQAGGSLRLSCAASGFTFSTYAMGWYRQAPGKERELVAAISGSGGRTYYADSVKGRFKISRDNAKNTVYLQMNSLKPEDTAVYYCAALTYSTVLGFDYWGQGTQVTVSS	high polyreactivity
QVQLVESGGGLVQAGGSLRLSCAASGFTFSWYAMGWYRPAPGKERELVAAISWDGDSTYYADSVKGRFTISRDNAKNTVYLQMNSLIPEDTAVYYCAADFYYYWDGYDYWGQGTQVTVSS	high polyreactivity
QVQLVESGGGLVQAGGSLRLSCAASGFTFSWYAMGWYRQAPGKERELVAAISRRGGSTYYADSVKGRFTISRDIAKNTVYLQMNSLKPEDTAVYYCNAALTYDYNYWGQGTQVTVSS	high polyreactivity
QVQLVESGGGLVQAGGSLRLSCAASGFTFSWYAMGWYRQAPGKERELVAAITSGGSTYYADSVKGRFTLSRDNAKNTVYLQMISLKPEDTAVYYCNKAFASIAPVWSGYDFWGQGTQVTVSS	low polyreactivity
QVQLVESGGGLVQAGGSLRLSCAASGFTFSYYAMGWYRQAPGHEREFVAAIIWNGTSTYYADSVKGRFTISRDNAKNTVYLQMNSLKPEDTAVYYCAAYDVHDYDYWGQGTQVTVSS	high polyreactivity
QVQLVESGGGLVQAGGSLRLSCAASGFTFSYYAMGWYRQAPGKERELVAAISFGGSTYYADSVKGRFTISRDNAKNTVYLQMNSLKPEDTAVYYCAVYGDSYWGAYYYSDGYWGQGTQVTVSS	low polyreactivity

Sequence	polyreactivity (PSR sort gate)
QVQLVESGGGLVQAGGSLRLSCAASGFTFSYYAMGWYRQAPGKERELVAAISWSGTATYYADSVKGRFTISRDNAKNTVYLQMNSLKPEDTAVYYCAAGYSASGKVDYRGQGTQVTVSS	high polyreactivity
QVQLVESGGGLVQAGGSLRLSCAASGFTFSYYAMGWYRQAPGKERELVAAITSSGARTYYADSVKGRFTISRDNAKNTVYFQMNSLKPEDTAVYYCAAEVFRTRTWEYYYWGQGTQVTVSS	high polyreactivity
QVQLVESGGGLVQAGGSLRLSCAASGFTFSYYAMGWYRQAPGKERELVASISRSGNTYYADSVKGRFTISRDNAKNTVYLQMNSLKPEDTAVYYCAADQVYASTHVWGYDYWGQGTQVTVSS	high polyreactivity
QVQLVESGGGLVQAGGSLRLSCAASGFTFSYYAMGWYRQAPRKERELVAAISGGGGTNYADSVKGRFTISRDNAKNTVYLQMNSLKPEDTAVYYCATDQFTQPSHRRDYWGQGTQVTVSS	low polyreactivity
QVQLVESGGGLVQAGGSLRLSCAASGFTFSYYDMGWYRQAPGKERELVAAITQSGGSTYYADSVKGRFTISRDNAKNTVYLQMNSLKPEDTEVFYCAALTYRWSARDYWGQGTQVTVSS	high polyreactivity
QVQLVESGGGLVQAGGSLRLSCAASGFTFTAYAMGWYRQAPGKERELVAAISYRGGRTNYAYSVKGRFTISRDYAKYTVYLQMNSLKPEDTAVYYCAARPRISTREMDYWGQGTQVTVSS	high polyreactivity
QVQLVESGGGLVQAGGSLRLSCAASGFTFTAYDMGWYRQAPGKERELVAAISGSGGTTYYADSVKGRFTISRDNAKNTVYLQMNSLKPEDTAVYYCAVDVPSPGGYDSWGQGTQVTVSS	low polyreactivity
QVQLVESGGGLVQAGGSLRLSCAASGFTFTENVMGWYRQAPGKEREFVAAITYIGGRTYYADSVKGRFTISRDNAKNTVYLQMNSLKPEDTAVYYCAADWAYYVASYLYYTFAYWGQGTQVTVSS	low polyreactivity
QVQLVESGGGLVQAGGSLRLSCAASGFTFTPYGMGWYRQAPGKERELVAAITWNGGRTYYADSVKGRFTISRDNAKNTVYLQMNSLKPEDTAVYYCAAVAWSWQKRGYWGQGTQVTVSS	high polyreactivity
QVQLVESGGGLVQAGGSLRLSCAASGFTFTRNAMGWYRQAPGKERELVAAISSSAGSTSYADSVKGRFTISRDNAKNPVYLQMNRLKPEDTAVYYCATEGSYYSWVGKVGYRYQYHYWGQGTQVTVSS	high polyreactivity
QVQLVESGGGLVQAGGSLRLSCAASGFTFTRYAMGWYRPAPGKERELVAAISSRGGSTNYADSVKGRFTISRDNAKNTVYLQMNSLKPEDTAVYYCAAVYYRLRYEYDYWGQGTQVTVSS	high polyreactivity
QVQLVESGGGLVQAGGSLRLSCAASGFTFTRYAMGWYRQAPGKERELVAAISRIGGSTYYADSVKGRFTISRDNAKNTVYLQMNSLKPEDTAVYYCAASKVPSYDYWGQGTQVTVSS	high polyreactivity
QVQLVESGGGLVQAGGSLRLSCAASGFTFTRYAMGWYRQAPGKERELVAAISRRGGSTYYADSVKGRFTISRDNAKNTVYLQMNSLKPEDTAVYYCAKDAGSRTVREFGYWGQGTQVTVSS	high polyreactivity
QVQLVESGGGLVQAGGSLRLSCAASGFTFTRYAMGWYRQAPGKERELVASISTSGGRTYYADSVKGRFTISRDNAKNTVYLQMNSLKPEDTAVYYCAASWNTQSRGWQYDYWGQGTQVTVSS	low polyreactivity
QVQLVESGGGLVQAGGSLRLSCAASGFTFTTNAMGWYRQAPGKERELVAAISFSGGTTYYADSVKGRFTISRDNAKNTVYLQMNSLKPEDTAVYYCPAQPGQAWWSTEHDDYWGQGTQVTVSS	low polyreactivity
QVQLVESGGGLVQAGGSLRLSCAASGFTFTYNAMGWDRQAPGKERELVAAISWSGGSTRYADSVKGRFTISRDNAKKTVYFQMNSLKPEDTGVYYFNKYTYRGRTGEINYWGQGTQVTVSS	high polyreactivity
QVQLVESGGGLVQAGGSLRLSCAASGFTFTYYALGGYRQAPGKERELVARIRGRSGSTYYADSVKGRFTISRDNAKNTVYLQMNSLKPEDTAVYYCNADFNRTVAGTPEVDYWGQGTQVTVSS	high polyreactivity
QVQLVESGGGLVQAGGSLRLSCAASGFTFTYYAMGWYRHAPGKERELVAAITNSGGTTYYADSVKGRFTISRDNAKNTVYLQMNSLKPEDTAVYYCAAVPYYVLARSFYRYGYWGQGTQVTVSS	low polyreactivity
QVQLVESGGGLVQAGGSLRLSCAASGFTFTYYAMGWYRQAPGKERELVAGITRSGGSTYYADSVKGRFTISRDNAKNTVYLHMNSLKPEDTAVYYCAAVGSLYYYRYDYWGQGTQVTVSS	high polyreactivity
QVQLVESGGGLVQAGGSLRLSCAASGFTFTYYAMGWYRQAPGTERELVAAISWRGTSTFYADSVKGRFTISRDNAKNTVYLQMNSLKPEDTAVYYCAAVGQWGYGYWGLGTQVTVSS	high polyreactivity
QVQLVESGGGLVQAGGSLRLSCAASGFTFTYYVMGWYRQAPGKERELVAAISVSGGSTYYADSVKGRFTITRDNAKNTVYLQMNSLKPEDTAVYYCAARSPFYSYTPGYEYWGQGTQVTVSS	high polyreactivity
